How the values were obtained:
Test in all cases: SPR, mAb captured, C2 mutant analyte;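 note: Anti-C2 mAbs captured on goat anti-human IgG Biacore CM5 chips, alanine or serine C2 surface mutants flowed over at 37 °C, double-referenced sensorgrams fitted to a 1:1 binding model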
human C2 N327A = target: T1, human C2 N327A (human, UniProt P06681 21-752)
T1 sequence: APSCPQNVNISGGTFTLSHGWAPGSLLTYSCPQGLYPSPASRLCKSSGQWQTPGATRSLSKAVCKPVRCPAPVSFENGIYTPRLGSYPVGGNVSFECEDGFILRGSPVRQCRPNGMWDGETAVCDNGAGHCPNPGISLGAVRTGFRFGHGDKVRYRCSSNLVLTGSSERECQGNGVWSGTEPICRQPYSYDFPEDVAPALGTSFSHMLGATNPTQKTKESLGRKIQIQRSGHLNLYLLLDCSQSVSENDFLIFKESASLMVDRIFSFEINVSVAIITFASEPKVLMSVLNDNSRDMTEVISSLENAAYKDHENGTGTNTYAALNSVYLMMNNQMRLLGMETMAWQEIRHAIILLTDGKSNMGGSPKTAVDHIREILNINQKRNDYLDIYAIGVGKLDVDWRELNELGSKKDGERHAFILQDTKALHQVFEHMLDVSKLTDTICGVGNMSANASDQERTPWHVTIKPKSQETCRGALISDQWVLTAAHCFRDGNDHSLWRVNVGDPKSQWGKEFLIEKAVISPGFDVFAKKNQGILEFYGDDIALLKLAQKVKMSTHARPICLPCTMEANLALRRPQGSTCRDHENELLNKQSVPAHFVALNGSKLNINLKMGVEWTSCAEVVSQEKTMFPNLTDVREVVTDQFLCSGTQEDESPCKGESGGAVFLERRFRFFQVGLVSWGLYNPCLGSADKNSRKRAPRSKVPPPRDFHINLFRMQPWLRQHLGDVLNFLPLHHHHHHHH
Experimental: (§1) Surface plasmon resonance (SPR, Biacore) was used for all binding affinity analyses. In brief, goat anti-human IgG was directly immobilised onto the carboxymethyl dextran surface of CM5 sensorchips to approximately 12,000 RU using standard NHS/EDC chemistry at pH 5. The immobilised antibody surface was pre-conditioned with ten injections of polyclonal human IgG (Privigen 60 s) prepared at 1 μg/mL. Ligands (anti-C2 mAbs) were captured at the beginning of each cycle as described below. An adjacent spot or flow cell in which only Polyclonal IgG was capture was used as a reference surface. The goat anti-human IgG Fc antibody surface was regenerate in 100 mM H3PO4, injected for 45 seconds at the end of each cycle. Experiments were performed at 37° C. and the flow rate of each experiment was kept constant at 30 μL/min.
(§2) Sensogram data was double-referenced against a reference anti-IgG surface (i.e. minus anti-C2 mAb) and blank buffer injections obtained within each experiment. The binding data was fit to 1:1 (kinetic or steady-state) model using local Rmax and null refraction index (RI=0) when appropriate. Buffers and solutions were filtered (0.22 μm) prior to use.

human C2 D454A = target: T2, human C2 D454A (human, UniProt P06681 21-752)
T2 sequence: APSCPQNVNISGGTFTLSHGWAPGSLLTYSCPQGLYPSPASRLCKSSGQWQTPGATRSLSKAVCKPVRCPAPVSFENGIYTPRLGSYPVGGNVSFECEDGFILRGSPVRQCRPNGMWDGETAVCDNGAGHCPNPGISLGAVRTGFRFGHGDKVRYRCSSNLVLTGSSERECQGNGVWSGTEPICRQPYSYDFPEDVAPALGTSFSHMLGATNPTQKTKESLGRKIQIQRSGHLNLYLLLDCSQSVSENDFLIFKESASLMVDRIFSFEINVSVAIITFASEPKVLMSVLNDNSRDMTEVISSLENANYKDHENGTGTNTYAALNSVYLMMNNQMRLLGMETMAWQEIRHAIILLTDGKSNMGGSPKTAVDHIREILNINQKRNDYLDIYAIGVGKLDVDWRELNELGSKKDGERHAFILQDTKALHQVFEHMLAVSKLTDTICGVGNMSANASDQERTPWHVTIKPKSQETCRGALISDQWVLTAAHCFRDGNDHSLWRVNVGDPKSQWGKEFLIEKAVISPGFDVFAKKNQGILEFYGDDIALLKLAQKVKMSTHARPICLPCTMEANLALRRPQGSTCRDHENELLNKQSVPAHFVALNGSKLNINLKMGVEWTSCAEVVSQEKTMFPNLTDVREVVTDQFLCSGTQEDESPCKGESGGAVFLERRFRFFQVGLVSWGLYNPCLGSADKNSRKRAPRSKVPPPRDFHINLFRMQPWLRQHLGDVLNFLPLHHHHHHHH
Experimental: as §1, §2

human C2 K415A = target: T3, human C2 K415A (human, UniProt P06681 21-752)
T3 sequence: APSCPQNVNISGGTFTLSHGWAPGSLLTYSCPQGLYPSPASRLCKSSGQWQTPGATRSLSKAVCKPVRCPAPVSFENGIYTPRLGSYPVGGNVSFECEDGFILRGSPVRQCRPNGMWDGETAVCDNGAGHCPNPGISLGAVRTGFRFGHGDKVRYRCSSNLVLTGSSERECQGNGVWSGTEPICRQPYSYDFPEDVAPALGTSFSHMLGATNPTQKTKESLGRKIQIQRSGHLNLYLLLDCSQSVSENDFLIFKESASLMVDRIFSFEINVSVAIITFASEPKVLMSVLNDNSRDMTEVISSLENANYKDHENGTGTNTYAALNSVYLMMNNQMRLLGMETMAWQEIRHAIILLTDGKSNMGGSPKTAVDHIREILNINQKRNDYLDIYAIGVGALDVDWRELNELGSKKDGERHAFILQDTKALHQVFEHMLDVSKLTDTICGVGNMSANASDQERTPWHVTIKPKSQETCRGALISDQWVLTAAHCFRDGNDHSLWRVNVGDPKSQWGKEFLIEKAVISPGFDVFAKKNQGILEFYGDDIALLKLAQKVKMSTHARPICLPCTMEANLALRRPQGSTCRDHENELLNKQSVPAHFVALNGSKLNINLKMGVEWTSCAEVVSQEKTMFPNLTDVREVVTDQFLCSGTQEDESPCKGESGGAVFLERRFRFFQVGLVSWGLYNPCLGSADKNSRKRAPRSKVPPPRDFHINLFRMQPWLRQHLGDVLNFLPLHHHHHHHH
Experimental: as §1, §2

human C2 I438A = target: T4, human C2 I438A (human, UniProt P06681 21-752)
T4 sequence: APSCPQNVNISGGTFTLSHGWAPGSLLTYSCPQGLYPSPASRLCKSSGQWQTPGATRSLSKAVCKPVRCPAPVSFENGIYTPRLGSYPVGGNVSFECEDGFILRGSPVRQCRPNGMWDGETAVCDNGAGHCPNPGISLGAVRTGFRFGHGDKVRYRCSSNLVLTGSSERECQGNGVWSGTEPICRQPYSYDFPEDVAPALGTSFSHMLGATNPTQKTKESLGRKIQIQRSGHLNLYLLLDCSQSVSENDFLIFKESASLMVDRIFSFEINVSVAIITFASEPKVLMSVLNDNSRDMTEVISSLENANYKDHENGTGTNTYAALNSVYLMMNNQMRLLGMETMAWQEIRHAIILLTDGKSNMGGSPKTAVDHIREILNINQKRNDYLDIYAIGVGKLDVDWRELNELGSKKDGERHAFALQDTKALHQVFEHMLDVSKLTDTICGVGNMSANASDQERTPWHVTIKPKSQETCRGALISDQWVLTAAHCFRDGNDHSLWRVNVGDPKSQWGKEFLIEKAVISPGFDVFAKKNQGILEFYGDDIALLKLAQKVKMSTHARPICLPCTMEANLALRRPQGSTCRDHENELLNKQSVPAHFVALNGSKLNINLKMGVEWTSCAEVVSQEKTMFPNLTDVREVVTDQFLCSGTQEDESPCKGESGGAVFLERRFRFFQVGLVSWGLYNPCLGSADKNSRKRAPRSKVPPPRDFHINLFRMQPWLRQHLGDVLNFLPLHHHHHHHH
Experimental: as §1, §2

Kd (human C2 N327A): 205 nM
Kd (human C2 D454A): 111 nM
Kd (human C2 K415A): 46 nM
Kd (human C2 I438A): 30.6 nM
B1: RF16-214 (antibody, V domains shown)
VH: EVQLLESGGGLVQPGGSLRLSCAASGFTFSWYQMMWVRQAPGKGLEWVSRIYPSGGGTAYADSVKGRFTISRDNSKNTLYLQMNSLRAEDTAVYYCARDAGYGDNWGQGTLVTVSS
VL: QSALTQPPSVSVSPGQTASITCSGDKLGEKYASWYQQKAGQSPVMVIYQDRKRPSGIPERFSGSNSGNTATLTISGTQAMDEADYYCQAWDTRAVVFGGGTKLTVLG
